Results published in patent US20220017589A1 (BEIJING QL BIOPHARMACEUTICAL, published 2022).

T1: human GFRAL (human, UniProt Q6UXV0 19-394)
T1 sequence (looked up): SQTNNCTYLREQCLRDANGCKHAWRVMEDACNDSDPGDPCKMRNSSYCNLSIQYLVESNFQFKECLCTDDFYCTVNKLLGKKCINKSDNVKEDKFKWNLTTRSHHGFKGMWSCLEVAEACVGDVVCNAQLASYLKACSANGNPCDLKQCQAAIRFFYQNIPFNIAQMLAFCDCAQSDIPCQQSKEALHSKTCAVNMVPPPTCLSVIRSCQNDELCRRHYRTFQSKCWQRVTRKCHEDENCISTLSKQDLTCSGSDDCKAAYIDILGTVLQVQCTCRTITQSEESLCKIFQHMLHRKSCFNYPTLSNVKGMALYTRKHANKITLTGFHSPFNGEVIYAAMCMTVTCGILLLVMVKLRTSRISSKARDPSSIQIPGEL


Key:
Assay in all cases: cell-based or functional assay
human GLP-1 receptor [1] = biological target: T2, human GLP-1 receptor (human, UniProt P43220 24-463)
human GFRAL [2] = biological target: T1, human GFRAL
human GLP-1 receptor [3] = biological target: T2, human GLP-1 receptor; remark: listed apart in the source
human GFRAL [4] = biological target: T1, human GFRAL; remark: listed apart in the source

| Binder | GLP-1 activity (EC50, pM) (human GLP-1 receptor [1]) [pM] | GDF15 activity (EC50, pM) (human GFRAL [2]) [pM] | GLP-1 activity (EC50, pM, 1% HSA) (human GLP-1 receptor [3]) [pM] | GDF15 activity (EC50, pM, 1% HSA) (human GFRAL [4]) [pM] |
| --- | --- | --- | --- | --- |
| MLC105 (ligand, Moiety B (HOOC-(CH2)16-CO-gGlu-2XADO-EDA-CO-CH2) on 17C of Linker (48C of fusion polypeptide)) HGEGTFTSDVSSYLEEQAAKEFIAWLVRGGGGAQPGAQPGAQPGAQPCQAPGAQPGAQPGAQPGQEPGAQPGQEPGAQPGQEPGAQPGQEPGAQPGQEPGAQPGQEPGAQPARQGDHCPLGPGRCCRLHTVRASLEDLGWADWVLSPREVQVTMCIGACPSQFRAANLHAQIKTSLHRLKPDTVPAPCCVPASYNPMVLIQKTDTGVSLQTYDDLLAKDCHCI | 10 | 50 | 168 | 55.5 |
| MLC089 (ligand, Moiety B (HOOC-(CH2)16-CO-gGlu-2XADO-EDA-CO-CH2) on 39C of Linker (70C of fusion polypeptide)) HGEGTFTSDVSSYLEEQAAKEFIAWLVRGGGGAQPGAQPGAQPGAQPGAQPGAQPGAQPGAQPGQEPGQCPGQEPGAQPGQEPGAQPGQEPGAQPGQEPGAQPGQEPGAQPARQGDHCPLGPGRCCRLHTVRASLEDLGWADWVLSPREVQVTMCIGACPSQFRAANLHAQIKTSLHRLKPDTVPAPCCVPASYNPMVLIQKTDTGVSLQTYDDLLAKDCHCI | 1.2 | 42.9 | 24.4 | 66.2 |
| MLC093 (ligand, Moiety B (HOOC-(CH2)16-CO-gGlu-2XADO-EDA-CO-CH2) on 33C of Linker (64C of fusion polypeptide)) HGEGTFTSDVSSYLEEQAAKEFIAWLVRGGGGAQPGAQPGAQPGAQPGAQPGAQPGAQPGAQPCQEPGAQPGQEPGAQPGQEPGAQPGQEPGAQPGQEPGAQPGQEPGAQPARQGDHCPLGPGRCCRLHTVRASLEDLGWADWVLSPREVQVTMCIGACPSQFRAANLHAQIKTSLHRLKPDTVPAPCCVPASYNPMVLIQKTDTGVSLQTYDDLLAKDCHCI | 1.4 | 54.8 | 27.3 | 67.6 |
| MLC087 (ligand, Moiety B (HOOC-(CH2)16-CO-gGlu-2XADO-EDA-CO-CH2) on 41C of Linker (72C of fusion polypeptide)) HGEGTFTSDVSSYLEEQAAKEFIAWLVRGGGGAQPGAQPGAQPGAQPGAQPGAQPGAQPGAQPGQEPGAQPCQEPGAQPGQEPGAQPGQEPGAQPGQEPGAQPGQEPGAQPARQGDHCPLGPGRCCRLHTVRASLEDLGWADWVLSPREVQVTMCIGACPSQFRAANLHAQIKTSLHRLKPDTVPAPCCVPASYNPMVLIQKTDTGVSLQTYDDLLAKDCHCI | 1.4 | 23.8 | 24.4 | 49.2 |
| MLC111 (ligand, Moiety B (HOOC-(CH2)16-CO-gGlu-2XADO-EDA-CO-CH2) on 51C of Linker (82C of fusion polypeptide)) HGEGTFTSDVSSYLEEQAAKEFIAWLVRGGGGAQPGAQPGAQPGAQPGAQPGAQPGAQPGAQPGQEPGAQPGQEPGAQPGQCPGQEPGQEPGAQPGQEPGAQPGQEPGAQPARQGDHCPLGPGRCCRLHTVRASLEDLGWADWVLSPREVQVTMCIGACPSQFRAANLHAQIKTSLHRLKPDTVPAPCCVPASYNPMVLIQKTDTGVSLQTYDDLLAKDCHCI | 11 | 54.9 | 7.52 | 194 |
| MLC107 (ligand, Moiety B (HOOC-(CH2)16-CO-gGlu-2XADO-EDA-CO-CH2) on 25C of Linker (56C of fusion polypeptide)) HGEGTFTSDVSSYLEEQAAKEFIAWLVRGGGGAQPGAQPGAQPGAQPGAQPGAQPCQAPGAQPGQEPGAQPGQEPGAQPGQEPGAQPGQEPGAQPGQEPGAQPGQEPGAQPARQGDHCPLGPGRCCRLHTVRASLEDLGWADWVLSPREVQVTMCIGACPSQFRAANLHAQIKTSLHRLKPDTVPAPCCVPASYNPMVLIQKTDTGVSLQTYDDLLAKDCHCI | 1.1 | 59.3 | 39.9 | 58 |
